Where two headings read alike, the source gives them in different places.
Assays:
Experiment in all cases: SPR
[1] = biological target: complement factor H, allotypic variant Ile62 (human) (UniProt P08603)
[2] = biological target: complement factor H, allotypic variant Val62 (human) (UniProt P08603)
[3] = biological target: complement factor H, allotypic variant Ile62 (human) (UniProt P08603); remark: listed apart in the source

- Kd [1]: 1.04 µM
- Kd [2]: 1.33 µM
- Kd [3]: 1.03 µM
Substance: C3b (from UniProt P01024 23-667; P01024 749-1663) (domain or fragment)

Reference: article PMC3272369
